From PMC4103484, “Functional effects of polymorphisms on glucocorticoid receptor modulation of human anxiogenic substance-P gene promoter activity in primary amygdala neurones”

Key:
[1] = biological target: T1, glucocorticoid receptor alpha (GRα) (human) (UniProt P04150); assay: EMSA; details: reference; EMSA: 20 fmol biotin probe with 2.0 uM GRα or 10 ug nuclear extract; buffer as Hay et al. 2005 with EDTA replaced by 50 uM ZnSO4; competitor 100x; 6% native …
T1 sequence: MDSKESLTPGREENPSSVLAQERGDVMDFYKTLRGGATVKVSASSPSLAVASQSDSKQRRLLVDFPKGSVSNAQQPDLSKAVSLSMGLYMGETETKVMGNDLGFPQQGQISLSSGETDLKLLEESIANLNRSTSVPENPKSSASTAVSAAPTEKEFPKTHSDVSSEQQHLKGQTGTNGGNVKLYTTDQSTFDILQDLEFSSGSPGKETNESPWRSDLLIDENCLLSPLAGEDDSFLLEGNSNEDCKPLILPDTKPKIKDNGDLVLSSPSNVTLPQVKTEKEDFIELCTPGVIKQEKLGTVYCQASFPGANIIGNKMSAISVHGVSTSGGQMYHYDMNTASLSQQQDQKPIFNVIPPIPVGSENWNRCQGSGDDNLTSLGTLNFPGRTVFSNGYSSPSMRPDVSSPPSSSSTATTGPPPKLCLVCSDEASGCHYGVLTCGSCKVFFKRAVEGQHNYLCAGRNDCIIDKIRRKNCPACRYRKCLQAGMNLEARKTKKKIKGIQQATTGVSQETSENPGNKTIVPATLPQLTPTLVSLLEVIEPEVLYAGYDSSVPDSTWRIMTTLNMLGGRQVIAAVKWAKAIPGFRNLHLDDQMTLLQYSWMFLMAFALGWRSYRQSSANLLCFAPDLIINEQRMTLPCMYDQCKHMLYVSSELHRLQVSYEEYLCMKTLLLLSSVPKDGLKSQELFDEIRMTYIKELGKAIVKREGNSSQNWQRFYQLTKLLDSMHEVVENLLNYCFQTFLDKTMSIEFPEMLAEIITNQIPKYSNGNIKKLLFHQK

[2] = biological target: T2, glucocorticoid receptor alpha (GRα) (human, UniProt P04150 1-777); assay: EMSA; EMSA: 20 fmol biotin probe with 2.0 uM GRα or 10 ug nuclear extract; buffer as Hay et al. 2005 with EDTA replaced by 50 uM ZnSO4; competitor 100x; 6% native gel, 0.5x TBE pH 8.3; binding salt, pH and temperature not stated; details: protein: recombinant; chain copies: 2; blunt
[3] = biological target: T2, glucocorticoid receptor alpha (GRα); assay: competition; 100x unlabelled, vs 2GR probe; EMSA: 20 fmol biotin probe with 2.0 uM GRα or 10 ug nuclear extract; buffer as Hay et al. 2005 with EDTA replaced by 50 uM ZnSO4; competitor 100x; 6% native gel, 0.5x TBE pH 8.3; binding salt, pH and temperature not stated; details: protein: recombinant; chain copies: 2; blunt

For “GAAGCAAAAAACGTCCTGTTCAACCCCTGCTCCTG (double strand) [SNP-G (SNPGR-G)]”, the binding signal [1] was 100 % of SNP-G.

B1: GRE-cons (dsDNA)
DNA 1: TAAGTTTATGGTTACAAACTGTTCTTAAAACGAGG
DNA 2: CCTCGTTTTAAGAACAGTTTGTAACCATAAACTTA
B1: binds [2].

B2: RO (random oligonucleotide) (dsDNA)
DNA 1: CGAGCACCCTTCACCCTCCAGGCTTAACGG
DNA 2: CCGTTAAGCCTGGAGGGTGAAGGGTGCTCG
B2: no binding [3].
